Publication PMC12356879 (Nature Communications, 2025)

Experiments:
[1] = molecular target: post-translational lamin construct with a single N-terminal cysteine (pJS81) (human) (UniProt P02545); experiment: SEC
optical tweezers = molecular target: the molecule itself; experiment: optical tweezers

stoichiometry N [1] | Molecule | mean rupture force (optical tweezers)
2 | post-translational lamin construct with a single N-terminal cysteine (pJS81) (from UniProt P02545 31-311) (domain or fragment) | –
– | LMNA_(31-123) ribosome-bound nascent chain (domain or fragment) EKEDLQELNDRLAVYIDRVRSLETENAGLRLRITESEEVVSREVSGIKAAYEAELGDARKTLDSVAKERARLQLELSKVREEFKELKARNTKK | 7 pN
– | LMNA_(31-311) ribosome-bound nascent chain (domain or fragment) EKEDLQELNDRLAVYIDRVRSLETENAGLRLRITESEEVVSREVSGIKAAYEAELGDARKTLDSVAKERARLQLELSKVREEFKELKARNTKKEGDLIAAQARLKDLEALLNSKEAALSTALSEKRTLEGELHDLRGQVAKLEAALGEAKKQLQDEMLRRVDAENRLQTMKEELDFQKNIYSEELRETKRRHETRLVEIDNGKQREFESRLADALQELRAQHEDQVEQYKKELEKTYSAKLDNARQSAERNSNLVGAAHEELQQSRIRIDSLSAQLSQLQK | 14 pN
